Measured values reported in publication doi:10.1101/2024.02.12.579695.

Assays:
[1] = biological target: DR2539 full length (Deinococcus radiodurans); experiment: SAXS
[2] = biological target: DR2539 full length (Deinococcus radiodurans); experiment: SEC
[3] = biological target: truncated DR2539 (DR2539tr, residues 4-142) (Deinococcus radiodurans); experiment: SAXS
[4] = biological target: T1, DR2539 full length (Deinococcus radiodurans, UniProt Q9RRF3 1-232); experiment: EMSA
T1 sequence: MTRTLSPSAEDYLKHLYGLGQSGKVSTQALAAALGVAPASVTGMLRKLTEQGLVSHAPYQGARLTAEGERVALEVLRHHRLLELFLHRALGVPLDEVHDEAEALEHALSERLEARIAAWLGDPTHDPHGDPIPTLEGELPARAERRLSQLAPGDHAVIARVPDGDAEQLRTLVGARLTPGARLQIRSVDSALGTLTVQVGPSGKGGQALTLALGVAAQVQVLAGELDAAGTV

DR2539 full length (natural protein)
stoichiometry N [1]: 2
stoichiometry N [2]: 2

truncated DR2539 (DR2539tr, residues 4-142) (domain or fragment)
stoichiometry N [3]: 2

B1: dr1709p_wt (dsDNA)
DNA 1: ATTTTAGTCGCGCCTAAAATA
DNA 2: TATTTTAGGCGCGACTAAAAT
binding result [4]: binds
